The series deals with T1, PsCas9 WT (UniProt PDB:8UMF_1 1-1462).
T1 sequence: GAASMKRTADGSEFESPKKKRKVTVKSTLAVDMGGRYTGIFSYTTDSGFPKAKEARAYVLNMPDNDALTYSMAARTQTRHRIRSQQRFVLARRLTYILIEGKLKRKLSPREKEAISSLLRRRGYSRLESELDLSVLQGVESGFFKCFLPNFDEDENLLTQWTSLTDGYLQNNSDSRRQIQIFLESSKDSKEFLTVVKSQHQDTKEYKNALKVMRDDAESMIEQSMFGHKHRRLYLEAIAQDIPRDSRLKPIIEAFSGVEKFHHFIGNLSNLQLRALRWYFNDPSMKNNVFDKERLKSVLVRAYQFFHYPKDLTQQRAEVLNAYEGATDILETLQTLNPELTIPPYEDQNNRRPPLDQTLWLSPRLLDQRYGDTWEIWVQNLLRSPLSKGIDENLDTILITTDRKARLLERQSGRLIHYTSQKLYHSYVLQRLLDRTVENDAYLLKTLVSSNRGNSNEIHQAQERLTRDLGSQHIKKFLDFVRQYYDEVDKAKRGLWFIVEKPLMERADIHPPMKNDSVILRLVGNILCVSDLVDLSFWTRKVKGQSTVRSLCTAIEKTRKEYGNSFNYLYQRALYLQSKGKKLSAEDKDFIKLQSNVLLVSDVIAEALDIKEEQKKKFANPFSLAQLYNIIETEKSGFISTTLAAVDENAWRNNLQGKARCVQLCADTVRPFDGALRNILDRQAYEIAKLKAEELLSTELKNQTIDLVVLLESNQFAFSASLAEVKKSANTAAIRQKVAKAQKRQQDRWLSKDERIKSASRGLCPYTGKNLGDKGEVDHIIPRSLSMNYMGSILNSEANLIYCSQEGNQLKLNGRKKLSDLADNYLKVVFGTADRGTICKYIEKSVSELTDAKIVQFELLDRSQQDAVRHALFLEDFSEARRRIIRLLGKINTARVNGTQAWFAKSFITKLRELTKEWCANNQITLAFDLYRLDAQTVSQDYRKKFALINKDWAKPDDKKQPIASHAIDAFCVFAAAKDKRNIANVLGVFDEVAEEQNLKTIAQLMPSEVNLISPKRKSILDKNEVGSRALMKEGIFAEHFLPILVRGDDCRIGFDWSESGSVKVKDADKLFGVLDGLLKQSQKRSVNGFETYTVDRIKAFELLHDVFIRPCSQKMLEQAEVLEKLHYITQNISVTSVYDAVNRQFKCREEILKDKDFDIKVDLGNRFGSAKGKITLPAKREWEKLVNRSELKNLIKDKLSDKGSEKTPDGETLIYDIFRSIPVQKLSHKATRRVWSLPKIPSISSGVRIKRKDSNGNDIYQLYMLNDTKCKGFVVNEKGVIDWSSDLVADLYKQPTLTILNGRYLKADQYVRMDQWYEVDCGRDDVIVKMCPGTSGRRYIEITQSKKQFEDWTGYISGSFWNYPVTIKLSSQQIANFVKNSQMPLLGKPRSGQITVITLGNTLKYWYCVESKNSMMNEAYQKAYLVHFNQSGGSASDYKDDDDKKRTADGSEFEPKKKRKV
Nature of the series: fluorescence polarization. (In general: In fluorescence polarisation assays a small probe gives low polarisation when free and higher when bound to something large.)

B1: EMX1a 38 bp target + PsCas9 original EMX1a sgRNA (mixed)
DNA 1: TGTATGTCACCTCCAATGACTAGGGTGGTACACAAACA
DNA 2: TGTTTGTGTACCACCCTAGTCATTGGAGGTGACATACA
On to B1, for which the Kd was ~112 nM.

In general, Kd refers to the constant that tells how readily two partners part at equilibrium. A high value points to weaker binding.

Values taken from PMC11544209.
